From article PMC3626232 (The Journal of biological chemistry, 2000)
Blank lines part the entries; values can stand above or below the binder they belong to.

What was measured:
[1] = molecular target: XMcm(2+4+6+7) tetramer (Xenopus (endogenous in Xenopus egg …, UniProt P55861 1-886; P30664 1-863; Q5FWY4 1-821; Q91876 1-720); assay: SEC
[2] = molecular target: the molecule itself; assay: SEC

Chain of XMcm(2+4+6+7) tetramer (Xenopus (P30664 whole entry, chain 2 of 2): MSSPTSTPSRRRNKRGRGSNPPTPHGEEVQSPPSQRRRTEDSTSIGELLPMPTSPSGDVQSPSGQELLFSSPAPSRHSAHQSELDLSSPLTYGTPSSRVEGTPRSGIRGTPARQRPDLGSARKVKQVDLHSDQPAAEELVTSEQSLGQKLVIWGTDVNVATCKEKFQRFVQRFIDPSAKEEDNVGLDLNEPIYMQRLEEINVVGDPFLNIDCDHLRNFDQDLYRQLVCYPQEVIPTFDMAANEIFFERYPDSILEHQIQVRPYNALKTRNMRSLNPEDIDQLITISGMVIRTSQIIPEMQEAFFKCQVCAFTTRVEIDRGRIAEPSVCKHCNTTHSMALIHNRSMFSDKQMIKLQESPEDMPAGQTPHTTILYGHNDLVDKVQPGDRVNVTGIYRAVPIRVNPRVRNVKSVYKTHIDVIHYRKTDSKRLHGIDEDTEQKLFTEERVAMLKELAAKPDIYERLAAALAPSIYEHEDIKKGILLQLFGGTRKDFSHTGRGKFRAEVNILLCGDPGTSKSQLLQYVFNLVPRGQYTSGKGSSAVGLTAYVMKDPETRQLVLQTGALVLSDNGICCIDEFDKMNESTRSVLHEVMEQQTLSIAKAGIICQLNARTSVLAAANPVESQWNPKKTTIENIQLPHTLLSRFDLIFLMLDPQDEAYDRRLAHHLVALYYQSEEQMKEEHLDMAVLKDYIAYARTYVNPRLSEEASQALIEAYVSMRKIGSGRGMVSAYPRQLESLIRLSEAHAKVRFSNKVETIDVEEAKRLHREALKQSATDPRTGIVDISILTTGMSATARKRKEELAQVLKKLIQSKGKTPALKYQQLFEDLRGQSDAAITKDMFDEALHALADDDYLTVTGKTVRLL
Chain of XMcm(2+4+6+7) tetramer (Xenopus (Q5FWY4 whole entry, chain 3 of 2): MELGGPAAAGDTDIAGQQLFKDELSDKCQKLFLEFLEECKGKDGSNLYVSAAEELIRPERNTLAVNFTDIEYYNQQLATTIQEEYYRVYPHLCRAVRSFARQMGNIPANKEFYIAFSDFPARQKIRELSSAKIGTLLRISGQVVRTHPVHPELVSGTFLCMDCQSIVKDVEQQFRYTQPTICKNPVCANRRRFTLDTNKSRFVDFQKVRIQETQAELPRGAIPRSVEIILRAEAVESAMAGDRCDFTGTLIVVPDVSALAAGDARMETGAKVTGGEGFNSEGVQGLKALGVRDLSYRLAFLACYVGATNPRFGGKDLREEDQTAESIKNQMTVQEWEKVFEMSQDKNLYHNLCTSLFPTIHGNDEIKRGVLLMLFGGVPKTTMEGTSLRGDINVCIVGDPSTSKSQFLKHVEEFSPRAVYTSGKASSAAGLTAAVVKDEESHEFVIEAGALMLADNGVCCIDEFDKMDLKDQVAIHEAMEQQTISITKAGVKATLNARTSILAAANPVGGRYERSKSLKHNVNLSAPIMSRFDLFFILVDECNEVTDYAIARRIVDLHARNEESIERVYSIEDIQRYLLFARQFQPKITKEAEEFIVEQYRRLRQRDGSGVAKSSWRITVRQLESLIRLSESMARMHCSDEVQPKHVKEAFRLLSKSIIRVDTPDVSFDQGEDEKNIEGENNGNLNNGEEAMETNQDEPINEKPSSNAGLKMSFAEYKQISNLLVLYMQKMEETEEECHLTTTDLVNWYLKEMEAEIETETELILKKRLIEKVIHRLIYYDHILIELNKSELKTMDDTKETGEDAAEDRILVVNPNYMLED

binding result [1]: binds
B1: XMcm(3+7) hetero-dimer (complex)
chain 1: MDYGGGFEDHELREAQREYLDFLDDDQDQGLYHGKVRDMIGSNEHRLIVNLNDVRRKNDKRANLMLNDAFAETIAFQRALKDLVASIDATYAKQFEEFSVGFEGSFGSKHVSPRTLTASLLGSLVCVEGIVTKCSLVRPKVMRSVHYCPATKKTLERKYSDLTSLEAFPSSSIYPTKDEENNPLETEYGLSTYKDHQTLSIQEMPEKAPAGQLPRSVDIIADDDLVDKCKPGDRVQIVGIYRCLPSKQGGFTSGTFRTILLANNIKLMSKEIAPTFSADDVAKIKKFCKAHSKDIFEHLSKSLAPSIHGHEYIKKAILCMLLGGNEKVLENGTRIRGDINVLLIGDPSVAKSQLLRYVLHTAPRAIPTTGRGSSGVGLTAAVTTDQETGERRLEAGAMVLADRGVVCIDEFDKMSDMDRTAIHEVMEQGRVTIAKAGIQARLNARCSVLAAANPVYGRYDQYRTPMENIGLQDSLLSRFDLLFIVLDKMDADNDQEIADHVLRMHRYRTPGEQDGYALPLGCSVEIFATDDPNASDVTDQELQIYEKHDNLLHGPRKNKSKIVSMQFIRKYIHVAKLIKPVLTSEAADYISQEYAKIRNHDQINNDSARTMPVTARALETMIRLSTAHAKVRMSKTIERQDAETALELVQFAYFKKVLAKEKKKTDKDLHDENLSQDTLSQESVRKSSRRAGKIADSQDDSMDPYSFSEQDSSLNENLSQSLRPQRKKAESQDGKRSLSQNRTKEFKAALLKAFKSSRSQSVAVSQLLELINKGNPEPFERSEVKEALDNMQNDNQVMVSEDVVFLI
chain 2: MPRDYQTEKEKCKTFLQEFYKDDEIGKKHFKYGVQLANIAHREQVALYIDLDDLAEEDPELVDAICENTRRYTNLFADAVQELLPQYKEREVVHKDALDVYIEHRLMMEQRGRDPNEMRDSQNQYPPELMRRFELYFKAPSSSKARVVRDVKADSIGKLVNIRGIVTRVTEVKPMMVVATYTCDQCGAETYQPIQSPTFMPLIMCPSRECQTNRSGGRLYLQTRGSKFIKFQELKIQEHSDQVPVGNIPRCMSVYVRGENTRLAQPGDHVGITGVFLPMLRTGFRQVVQGLLSETYLECHRLVKMNKSEDDELGTEELSEEELRQITEEDFYEKLAASIAPEIYGHEDVKKALLLLLVGGVDNSPRGMKIRGNINICLMGDPGVAKSQLLSYIDRLAPRSQYTTGRGSSGVGLTAAVMKDPVTGEMTLEGGALVLADQGVCCIDEFDKMMDTDRTAIHEVMEQQTISIAKAGIMTTLNARCSILAAANPAYGRYNPKKTVEQNIQLPAALLSRFDVLWLIQDKPDRDNDLRLAQHITYVHQHSKQPPSQFQPLDMKLMRRYITMCKRKQPAIPEALADYLTAAYVEMRKEARTNKDMTFTSARTLLSVLRLSTALARLRLEDVVEKEDVNEAMRLMEMSKDSLLGDKGHTSRTQRPADVIFSTIREMVPEKGARSVKYSEAEQRCVSKGFTPAQFEAALEEYEELNVWLVNQARTKITFV

B2: XMcm2 (natural protein, UniProt P55861 1-886, looked up)
chain: MADSSESFNIATSPRAGSRRDALTSSPGRDLPPFEDESEGMFGDGVVPEEEEDGEELIGDAMERDYRPISELDRYEVEGLDDEEDVEDLTASQREAAEQSMRMRDREMGRELGRMRRGLLYDSDEEEEDRPARKRRMAERAAEGAPEEDEEMIESIENLEDMKGHTVREWVSMAATRLEIYHRFKNFLRTHVDEHGHNVFKEKISDMCKENKESLPVNYEDLAAREHVLAYFLPEAPAEMLKIFDEAAKEVVLVMYPKYDRIAREIHVRISHLPLVEELRSLRQLHLNQLIRTSGVVTCCTGVLPQLSMVKYNCNKCNFILGPFFQSQNQEVRPGSCPECQSFGPFEINMEETVYQNYQRITIQESPGKVAAGRLPRSKDAILLADLVDSCKPGDEIELTGIYHNNYDGSLNTANGFPVFATVILANHITKKDDKVAVGELTDEDVKAIVALSKDERIGERIFASIAPSIYGHEDIKRGLALALFGGEAKNPGGKHKVRGDINVLLCGDPGTAKSQFLKYVEKVASRAVFTTGQGASAVGLTAYVQRHPVTKEWTLEAGALVLADRGVCLIDEFDKMNDQDRTSIHEAMEQQSISISKAGIVTSLQARCTVIAASNPIGGRYDPSLTFSENVDLTEPIVSRFDILCVVRDTVDPVQDEMLARFVVSSHIKHHPSSKDIANGDAAEFALPNTFGVEALPQEVLKKYIMYAKEKIRPKLNQMDQDKVAKMYSDLRKESMATGSIPITVRHIESMIRMAEAHARMHLRDYVVEDDVNMAIRVMLESFIDTQKFSVMRSMRKTFARYLAFRRDNNELLLFVLKQLIAEQVTYQRNRYGAQQDTIEVPEKDLVDKARQINIHNLSAFYDSDLFKMNKFTHDVKKKLIIQQF
stoichiometry N [2]: 2
